Data on 5 molecules can be found in patent US20110044994A1 (THERACLONE SCIENCES, published 2011).

Substitutions are numbered along the chain they refer to.

In assay [1] the target is JR-CSF pseudovirus (HIV-1 Env on the virions) (HIV-1, UniProt P20871 32-848). The assay is described as follows: cell-based or functional assay.
Assay [2] has as its target JR-FL (E168K) pseudovirus Env (HIV-1). The assay is described as follows: cell-based or functional assay.
In another assay the target is ADA pseudovirus Env (HIV-1). Kind of assay: cell-based or functional assay.
For the next assay, the target named is 92RW020 pseudovirus Env (HIV-1). Kind of assay: cell-based or functional assay.
Assay [3] deals with T1, recombinant, monomeric gp120JR-CSF (HIV-1, UniProt P20871 32-503).
T1 construct: domain: gp120; also called JR-CSF gp120; JR-CSFgp120
Kind of assay: ELISA screen of B cell culture supernatants. In general terms: An ELISA detects its analyte on a solid surface through an enzyme-linked reagent.

Assay [4] deals with T2, recombinant gp41HxB2 (HIV-1, UniProt P04578 541-682).
T2 construct: domain: gp41
The assay is described as follows: ELISA screen of B cell culture supernatants.

For assay [5], the target named is T2, recombinant gp41HxB2. Kind of assay: ELISA.
For assay [6], the target named is T1, recombinant, monomeric gp120JR-CSF. Kind of assay: mAb specificity by ELISA.

B1: 1443_C16 (PG16) (antibody, V domains shown)
VH: QEQLVESGGGVVQPGGSLRLSCLASGFTFHKYGMHWVRQAPGKGLEWVALISDDGMRKYHSDSMWGRVTISRDNSKNTLYLQFSSLKVEDTAMFFCAREAGGPIWHDDVKYYDFNDGYYNYHYMDVWGKGTTVTVSS
VL: QSALTQPASVSGSPGQTITISCNGTSSDVGGFDSVSWYQQSPGKAPKVMVFDVSHRPSGISNRFSGSKSGNTASLTISGLHIEDEGDYFCSSLTDRSHRIFGGGTKVTVLG
Regarding B1, the “IC50 (ug/ml), pseudovirus neutralization, TZM-bl assay” value in assay [1] is 0.001 µg/mL; in assay [2], 0.006 µg/mL; with ADA pseudovirus Env, 0.004 µg/mL; in the assay with 92RW020 pseudovirus Env it was 0.09 µg/mL. In addition, the binding result (in assay [3]; with recombinant gp41HxB2 [4]) was “no binding” throughout.

B2: 1496_C09 (PG9) (antibody, V domains shown)
VH: QRLVESGGGVVQPGSSLRLSCAASGFDFSRQGMHWVRQAPGQGLEWVAFIKYDGSEKYHADSVWGRLSISRDNSKDTLYLQMNSLRVEDTATYFCVREAGGPDYRNGYNYYDFYDGYYNYHYMDVWGKGTTVTVSS
VL: QSALTQPASVSGSPGQSITISCNGTSNDVGGYESVSWYQQHPGKAPKVVIYDVSKRPSGVSNRFSGSKSGNTASLTISGLQAEDEGDYYCKSLTSTRRRVFGTGTKLTVLG
Take B2: the “IC50 (ug/ml), pseudovirus neutralization, TZM-bl assay” value was determined as 0.2 µg/mL in the assay with ADA pseudovirus Env and 0.1 µg/mL in the assay with 92RW020 pseudovirus Env. The binding result with recombinant gp41HxB2 [4] was “no binding”.

B3: 1495_C14 (PGC14) (antibody, human IgG1, lambda, V domains shown)
VH: DGHLVQSGVEVKKTGATVKISCKVSGYSFIDYYLHWVQRAPGKGLEWVGLIDPENGEARYAEKFQGRVTIIADTSIDTGYMEMRSLKSEDTAVYFCAAGAVGADSGSWFDPWGQGTLVTVSS
VL: SYELTQPPSVSVSPGQTASITCSGSKLGDKYVSWYQLRPGQSPILVMYENDRRPSGIPERFSGSNSGDTATLTISGTQALDEADFYCQAWETTTTTFVFFGGGTQLTVLG
Consider B3, for which the binding result with recombinant gp41HxB2 [5] is on record as “no binding”; in assay [6] it was “binds”.

B4: 1456_P20 (PG20) (antibody, human IgG1, kappa, V domains shown)
VH: QVRLVQSGPEVKKPGSSVTVSCQASGGTFSSYAFTWVRQAPGQGLEWLGMVTPIFGEAKYSQRFEGRVTITADESTSTTSIELRGLTSEDTAIYYCARDRRAVPIATDNWLDPWGQGTLVTVSS
VL: DIQLTQSPSSLSASVGDRVSITCRASQTINNYLNWYQQTPGKAPKLLIYGASNLQNGVPSRFSGSGSGTDFTLTISSLQPEDFATYYCQQSFSTPRTFGQGTRLDIKR
With B4, the values for the binding result (in the assay with recombinant gp41HxB2 [5]; in assay [6]) were “no binding” and “binds”, respectively.

B5: 1460_G14 (PGG14) (antibody, human IgG1, kappa, V domains shown)
VH: QVLLVQSGTEVKKPGSSVKVSCQASGGAFSSYAFSWVRQAPGQGLEWMGMITPVFGETKYAPRFQGRLTLTAEESLSTTYMELRSLTSDDTAFYYCTRDRRVVPMATDNWLDPWGQGTLVTVSS
VL: B4 VL with S20T, I21V, N30H, N31T, T39I, N53T, N56S, S76N, F92Y
As for B5, the binding result is given as “no binding” with recombinant gp41HxB2 [5] and “binds” in assay [6].
